In patent US20260256934A1 (Daiichi Sankyo, published 2026):

How the values were obtained:
[1] = target: T1, Recombinant Human Fc gamma RI/CD64 Protein (R&D systems) (human, UniProt P12314 16-288); assay: SPR (Biacore T200); His-tagged FcγRI captured on anti-His chip, antibody as analyte 0.3-4.7 µM
T1 construct: His-tagged; also called human FcγRI; His-tagged human FcγRI

[2] = target: T2, Recombinant Human Fc gamma RIIB/C (CD32b/c) Protein (R&D systems) (human, UniProt P31994 46-217); assay: SPR (Biacore T200); FcγRIIb/c immobilised directly on CM5, antibody as analyte 0.9-4.7 µM
T2 construct: Bought protein; also called human FcγRIIb/c
T2 sequence (looked up): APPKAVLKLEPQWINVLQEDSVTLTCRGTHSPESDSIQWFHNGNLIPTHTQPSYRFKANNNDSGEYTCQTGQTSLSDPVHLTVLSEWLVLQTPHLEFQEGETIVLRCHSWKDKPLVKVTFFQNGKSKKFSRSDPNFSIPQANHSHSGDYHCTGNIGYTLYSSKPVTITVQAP

[3] = target: T3, Recombinant Human Fc gammaRIIA/CD32a (R167) Protein (R&D systems) (human, UniProt P12318 36-218); assay: SPR (Biacore T200); FcγRIIa immobilised directly on CM5, antibody as analyte 0.9-4.7 µM
T3 construct: Bought protein; also called human FcγRIIa
T3 sequence (looked up): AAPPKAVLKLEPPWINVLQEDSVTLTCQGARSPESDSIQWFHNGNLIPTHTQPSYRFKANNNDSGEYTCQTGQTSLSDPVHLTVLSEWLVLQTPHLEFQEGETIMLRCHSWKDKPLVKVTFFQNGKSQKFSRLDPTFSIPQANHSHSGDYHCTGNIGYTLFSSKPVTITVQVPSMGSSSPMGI

[4] = target: T3, Recombinant Human Fc gammaRIIA/CD32a …; assay: SPR (Biacore T200) as in Test Example 16; RU at 4.7 µM conjugate
[5] = target: T2, Recombinant Human Fc gamma RIIB/C …; assay: SPR (Biacore T200) as in Test Example 17; RU at 4.7 µM conjugate
[6] = target: T1, Recombinant Human Fc gamma RI/CD64 …; assay: SPR (Biacore T200) as in Test Example 15; RU at 4.7 µM conjugate

Measured: binding result

T1 sequence (P12314 16-288 limits assumed): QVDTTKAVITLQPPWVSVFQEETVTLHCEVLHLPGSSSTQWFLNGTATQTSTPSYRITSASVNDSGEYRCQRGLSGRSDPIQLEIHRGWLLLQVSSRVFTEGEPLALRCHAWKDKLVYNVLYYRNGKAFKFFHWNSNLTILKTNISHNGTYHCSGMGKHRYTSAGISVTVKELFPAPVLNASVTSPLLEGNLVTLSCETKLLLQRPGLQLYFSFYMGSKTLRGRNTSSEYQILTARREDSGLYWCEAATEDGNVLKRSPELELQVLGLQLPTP

B1: anti-EGFR antibody B (Vectibix) (antibody, human IgG2, kappa)
heavy: QVQLQESGPGLVKPSETLSLTCTVSGGSVSSGDYYWTWIRQSPGKGLEWIGHIYYSGNTNYNPSLKSRLTISIDTSKTQFSLKLSSVTAADTAIYYCVRDRVTGAFDIWGQGTMVTVSSASTKGPSVFPLAPCSRSTSESTAALGCLVKDYFPEPVTVSWNSGALTSGVHTFPAVLQSSGLYSLSSVVTVPSSNFGTQTYTCNVDHKPSNTKVDKTVERKCCVECPPCPAPPVAGPSVFLFPPKPKDTLMISRTPEVTCVVVDVSHEDPEVQFNWYVDGVEVHNAKTKPREEQFNSTFRVVSVLTVVHQDWLNGKEYKCKVSNKGLPAPIEKTISKTKGQPREPQVYTLPPSREEMTKNQVSLTCLVKGFYPSDIAVEWESNGQPENNYKTTPPMLDSDGSFFLYSKLTVDKSRWQQGNVFSCSVMHEALHNHYTQKSLSLSPGK
light: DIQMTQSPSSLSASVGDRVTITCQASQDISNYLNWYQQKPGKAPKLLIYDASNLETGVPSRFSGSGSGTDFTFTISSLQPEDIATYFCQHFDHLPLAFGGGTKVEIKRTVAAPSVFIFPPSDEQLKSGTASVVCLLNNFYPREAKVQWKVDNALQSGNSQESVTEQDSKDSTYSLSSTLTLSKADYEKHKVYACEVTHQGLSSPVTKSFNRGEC
notes: Commercial Vectibix (IgG2), buffer-exchanged into HBS-EP+; also called anti-EGFR antibody (IgG2); IgG2
binds: [1] | [2] | [3]

B2: anti-EGFR antibody 1-CDN conjugate 1 (antibody, human IgG1, kappa, L234A L235A)
heavy: QVQLQESGPGLVKPSETLSLTCTVSGGSVSSGDYYWTWIRQSPGKGLEWIGHIYYSGNTNYNPSLKSRLTISIDTSKTQFSLKLSSVTAADTAIYYCVRDRVTGAFDIWGQGTMVTVSSASTKGPSVFPLAPSSKSTSGGTAALGCLVKDYFPEPVTVSWNSGALTSGVHTFPAVLQSSGLYSLSSVVTVPSSSLGTQTYICNVNHKPSNTKVDKRVEPKSCDKTHTCPPCPAPEAAGGPSVFLFPPKPKDTLMISRTPEVTCVVVGVSHEDPEVKFNWYVDGVEVHNAKTKPREEQYNSTYRVVSVLTVLHQDWLNGKEYKCKVSNKALPAPIEKTISKAKGQPREPQVYTLPPSREEMTKNQVSLTCLVKGFYPSDIAVEWESNGQPENNYKTTPPVLDSDGSFFLYSKLTVDKSRWQQGNVFSCSVMHEALHNHYTQKSLSLSPGK
light: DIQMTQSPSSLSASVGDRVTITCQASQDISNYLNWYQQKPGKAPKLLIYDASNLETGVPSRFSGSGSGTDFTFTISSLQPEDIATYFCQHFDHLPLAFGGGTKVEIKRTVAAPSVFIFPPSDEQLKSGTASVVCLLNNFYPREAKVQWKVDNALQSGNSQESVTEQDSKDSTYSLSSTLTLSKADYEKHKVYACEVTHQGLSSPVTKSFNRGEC
modifications: CDN drug-linker 17a conjugated through the remodeled N297 glycan (SG type); average number of conjugated drugs 3.7
notes: also called modified anti-EGFR antibody 1-CDN conjugate 1; antibody-drug conjugate 1
binds: [4] | [5] | [6]

B3: anti-EGFR antibody 1-CDN conjugate 2 (antibody, human IgG1, kappa, L234A L235A)
heavy: QVQLQESGPGLVKPSETLSLTCTVSGGSVSSGDYYWTWIRQSPGKGLEWIGHIYYSGNTNYNPSLKSRLTISIDTSKTQFSLKLSSVTAADTAIYYCVRDRVTGAFDIWGQGTMVTVSSASTKGPSVFPLAPSSKSTSGGTAALGCLVKDYFPEPVTVSWNSGALTSGVHTFPAVLQSSGLYSLSSVVTVPSSSLGTQTYICNVNHKPSNTKVDKRVEPKSCDKTHTCPPCPAPEAAGGPSVFLFPPKPKDTLMISRTPEVTCVVVGVSHEDPEVKFNWYVDGVEVHNAKTKPREEQYNSTYRVVSVLTVLHQDWLNGKEYKCKVSNKALPAPIEKTISKAKGQPREPQVYTLPPSREEMTKNQVSLTCLVKGFYPSDIAVEWESNGQPENNYKTTPPVLDSDGSFFLYSKLTVDKSRWQQGNVFSCSVMHEALHNHYTQKSLSLSPGK
light: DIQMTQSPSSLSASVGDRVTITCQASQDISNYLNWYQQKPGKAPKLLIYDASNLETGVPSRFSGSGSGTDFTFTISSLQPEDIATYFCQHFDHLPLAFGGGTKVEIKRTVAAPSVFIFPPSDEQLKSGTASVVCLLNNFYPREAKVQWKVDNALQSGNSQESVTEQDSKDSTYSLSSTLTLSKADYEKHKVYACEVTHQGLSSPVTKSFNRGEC
modifications: CDN drug-linker 17a conjugated through the remodeled N297 glycan (MSG1 type); average number of conjugated drugs 1.9
notes: also called modified anti-EGFR antibody 1-CDN conjugate 2; antibody-drug conjugate 2
binds: [4] | [5] | [6]

B4: modified anti-EGFR antibody 1 (antibody, human IgG1, kappa, L234A L235A)
heavy: QVQLQESGPGLVKPSETLSLTCTVSGGSVSSGDYYWTWIRQSPGKGLEWIGHIYYSGNTNYNPSLKSRLTISIDTSKTQFSLKLSSVTAADTAIYYCVRDRVTGAFDIWGQGTMVTVSSASTKGPSVFPLAPSSKSTSGGTAALGCLVKDYFPEPVTVSWNSGALTSGVHTFPAVLQSSGLYSLSSVVTVPSSSLGTQTYICNVNHKPSNTKVDKRVEPKSCDKTHTCPPCPAPEAAGGPSVFLFPPKPKDTLMISRTPEVTCVVVGVSHEDPEVKFNWYVDGVEVHNAKTKPREEQYNSTYRVVSVLTVLHQDWLNGKEYKCKVSNKALPAPIEKTISKAKGQPREPQVYTLPPSREEMTKNQVSLTCLVKGFYPSDIAVEWESNGQPENNYKTTPPVLDSDGSFFLYSKLTVDKSRWQQGNVFSCSVMHEALHNHYTQKSLSLSPGK
light: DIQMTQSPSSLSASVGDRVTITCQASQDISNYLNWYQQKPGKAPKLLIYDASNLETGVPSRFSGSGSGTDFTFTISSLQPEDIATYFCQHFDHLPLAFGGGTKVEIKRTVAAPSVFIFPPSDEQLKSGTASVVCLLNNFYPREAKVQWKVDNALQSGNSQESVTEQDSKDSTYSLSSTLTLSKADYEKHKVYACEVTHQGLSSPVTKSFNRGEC
notes: IgG1 with L234A/L235A/D265G (LALA-DG) introduced into anti-EGFR antibody A; also called LALA-DG; LALA-DG mutant anti-EGFR antibody
binds: [1] | [2] | [3]

B5: anti-EGFR antibody B-CDN conjugate 2 (antibody, human IgG2, kappa)
heavy: QVQLQESGPGLVKPSETLSLTCTVSGGSVSSGDYYWTWIRQSPGKGLEWIGHIYYSGNTNYNPSLKSRLTISIDTSKTQFSLKLSSVTAADTAIYYCVRDRVTGAFDIWGQGTMVTVSSASTKGPSVFPLAPCSRSTSESTAALGCLVKDYFPEPVTVSWNSGALTSGVHTFPAVLQSSGLYSLSSVVTVPSSNFGTQTYTCNVDHKPSNTKVDKTVERKCCVECPPCPAPPVAGPSVFLFPPKPKDTLMISRTPEVTCVVVDVSHEDPEVQFNWYVDGVEVHNAKTKPREEQFNSTFRVVSVLTVVHQDWLNGKEYKCKVSNKGLPAPIEKTISKTKGQPREPQVYTLPPSREEMTKNQVSLTCLVKGFYPSDIAVEWESNGQPENNYKTTPPMLDSDGSFFLYSKLTVDKSRWQQGNVFSCSVMHEALHNHYTQKSLSLSPGK
light: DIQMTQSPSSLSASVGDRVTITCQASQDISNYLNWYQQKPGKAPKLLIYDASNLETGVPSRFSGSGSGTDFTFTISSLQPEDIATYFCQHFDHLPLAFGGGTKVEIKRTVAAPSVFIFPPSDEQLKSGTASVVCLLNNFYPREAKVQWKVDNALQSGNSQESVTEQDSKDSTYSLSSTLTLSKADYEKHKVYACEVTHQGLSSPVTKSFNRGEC
modifications: CDN drug-linker 17a conjugated through the remodeled N297 glycan (MSG1 type); average number of conjugated drugs 1.9
notes: Antibody-drug conjugate of Vectibix (IgG2), DAR about 2; Light chain is inferred as for m1; also called antibody-drug conjugate 8
binds: [4] | [5] | [6]
